Type in all cases: biochemical
Series [1] deals with T1, FIH (Homo sapiens, UniProt Q9NWT6).
T1 construct: His6 (N, cleaved yes); made in house; host or cells: Escherichia coli BL21(DE3)
The series can be described thus: FIH 2-OG decarboxylation (CO2 release) assay with HIF-1α polypeptide substrates. The following applies: for % activity relative to 775-826 peptide: same conditions; for % activity relative to 775-826 peptide / CO2 released: polypeptide as FIH substrate; for CO2 released: standard assay conditions. Here is the method: (§1) FIH assays—Assays for decarboxylation of 2-OG were performed using radiolabelled 2-OG (New England Nuclear) as reported in Epstein et al supra. Incubations contained ascorbate, DTT, catalase, 2-OG, FIH, and substrate in 50 mM Tris/HCl pH7.4, and were carried out at 37° C. typically for 20 minutes. HPLC separations were achieved on a Phenomenex Jupiter C4 (10 cm×4.6 mm) column by using of a linear gradient of CH3CN in 0.1% TFA. For inhibition and metal dependence assays, GST HIF-1α 775-826 was used as substrate at 30 μM, and with iron (II) ammonium sulfate, cobalt (II) chloride, zinc (II) chloride, and N-oxaloylglycine at final concentrations of 0, 2, 10, 40, 80 and 200 μM. Assays under an atmosphere of ^18O2 were performed as reported in McNeill et al, Bioorg Med Chem Lett, 2002 12, 1547-1550.

Series [2] concerns the target T1, FIH. The series is described as follows: FIH inhibition and metal dependence assays (2-OG decarboxylation, GST HIF-1α 775-826 as substrate). Here is the method: as §1
Further characterization of FIH activity—To explore the mechanism of FIH and its relationship to the characteristics of in vivo HIF activation, in vitro analyses of FIH using the purified recombinant protein were performed.

For series [3], the target named is T1, FIH. The series is described as follows: GST pulldown assay: capture of 35S-labelled p300 CH1 by HIF-1α CAD after exposure to FIH. The following applies: for ability to capture CH1 after pre-incubation with FIH: GST-fused polypeptide, 35S-labelled CH1. Here is the method: N-oxaloylglycine was added to 5 mM when required. Glutathione Sepharose beads were added for 40 minutes at 25° C. and then washed with 50 mM Tris/HCl pH 7.4, 0.5% NP40, 150 mM NaCl and 1 mM DTT. […] Binding was performed for 1 hour at 25° C. and the beads were then washed in the same buffer. The bound proteins were eluted in SDS running buffer and analyzed by SDS-PAGE and autoradiography.

Setting [4] is: in vitro kinetic assays, recombinant FIH, GST HIF-1α 775-826 at 30 μM, read-out: IC50.

Like-named read-outs stand apart in the source and are kept apart here. Where no end group is shown, it is not given here.

15 molecules from patent US20090286858A1, “ASSAYS FOR MODULATORS OF ASPARAGINYL HYDROXYLASE” (ISIS INNOVATION LIMITED, priority 2002, published 2009) can be followed below.

T1 sequence (Q9NWT6 with tags, fused parts or gaps): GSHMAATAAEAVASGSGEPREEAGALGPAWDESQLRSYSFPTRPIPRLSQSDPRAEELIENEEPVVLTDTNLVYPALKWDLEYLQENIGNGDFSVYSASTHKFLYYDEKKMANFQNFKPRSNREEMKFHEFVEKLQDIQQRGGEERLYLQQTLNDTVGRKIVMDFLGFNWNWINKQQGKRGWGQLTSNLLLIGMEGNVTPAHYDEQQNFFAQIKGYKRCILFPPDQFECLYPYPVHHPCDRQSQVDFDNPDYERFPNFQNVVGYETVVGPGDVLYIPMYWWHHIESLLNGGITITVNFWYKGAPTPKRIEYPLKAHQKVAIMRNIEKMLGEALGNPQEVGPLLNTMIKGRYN

With “2-oxoglutarate [2-OG, reference compound]”, the Michaelis constant (Km) on FIH [1] (preliminary kinetic parameter, with free HIF-1α 775-826 peptide, 2-OG turnover assay, read-out: Km(2-OG)) was found to be 10 µM.

For “GST HIF-1α 775-826 N803D: GST HIF-1α 775-826 with Asn-803 mutated to aspartate (PSDLACRLLGQSMDESGLPQLTSYDCEVDAPIQGSRNLLQGEELLRALDQVN; cysteine pairing not given here; also: GST fusion, not in chain; UniProt Q16665 775-826, looked up, variant N803D)”, in the series with FIH [1] (GST HIF-1α 775-826 mutant), the “2-OG turnover relative to the analogous Asn-803 substrate” value is given as at most 7%. Moreover, in the series with FIH [1], the “% activity relative to 775-826 peptide” value stood at 7% and the CO2 released was determined as 0.22 nmol.

`O=C(O)CNC(=O)C(=O)O` [N-oxaloylglycine, reference compound] returned an IC50 at FIH [2] of 25 µM. For the same molecule, at FIH [3] (N-oxaloylglycine 5 mM in FIH/HIF-1α CAD reaction step), the “inhibition of FIH effect on CH1 capture by HIF-1α CAD” value is listed as “inhibited the effect of FIH”.

As to “GST HIF-1α 775-826: N-terminal glutathione S-transferase tagged fusion of human HIF-1α residues 775-826 (CAD)”, the “ability to capture CH1 after pre-incubation with FIH” value with FIH [3] was “strikingly reduced”. In the series with FIH [1], the “% activity relative to 775-826 peptide” value worked out at 96% and the CO2 released is recorded as 2.7 nmol.

Consider “GST HIF-1α 775-826 N803A: GST HIF-1α 775-826 with Asn-803 mutated to alanine (PSDLACRLLGQSMDESGLPQLTSYDCEVAAPIQGSRNLLQGEELLRALDQVN; cysteine pairing not given here; also: GST fusion, not in chain)”, for which, in the series with FIH [3], the “ability to capture CH1 after pre-incubation with FIH” value is on record as “unaffected”. For the same molecule, in the series with FIH [1], the “% activity relative to 775-826 peptide” value is recorded as under 0.01% and the CO2 released is on record as under 0.001 nmol.

“GST HIF-1α 577-826: GST tagged fusion of human HIF-1α residues 577-826”: in the series with FIH [1], the “% activity relative to 775-826 peptide” value worked out at 67% and the CO2 released is 0.81 nmol.

“GST HIF-1α 775-826 N803Q: GST HIF-1α 775-826 with Asn-803 mutated to glutamine (PSDLACRLLGQSMDESGLPQLTSYDCEVQAPIQGSRNLLQGEELLRALDQVN; cysteine pairing not given here; also: GST fusion, not in chain; UniProt Q16665 775-826, looked up, variant N803Q)”: in the series with FIH [1], the “% activity relative to 775-826 peptide” value was under 0.01% and the CO2 released is under 0.001 nmol.

Consider `O=S(=O)([O-])[O-].O=S(=O)([O-])[O-].[Fe+2].[NH4+].[NH4+]` [iron (II), iron (II) ammonium sulfate], for which the “effect of exogenous metal on FIH activity” value at FIH [2] (added to purified FIH/HIF-1α CAD assay) was “no further increase in activity”.

With `[Cl-].[Cl-].[Zn+2]` [zinc (II), zinc (II) chloride], the IC50 at FIH [2] (setting [4]) turned out to be 10 µM.

As for “GST HIF-1α 775-826 N803E: GST HIF-1α 775-826 with Asn-803 mutated to glutamate (PSDLACRLLGQSMDESGLPQLTSYDCEVEAPIQGSRNLLQGEELLRALDQVN; cysteine pairing not given here; also: GST fusion, not in chain; UniProt Q16665 775-826, looked up, variant N803E)”, in the series with FIH [1], the “% activity relative to 775-826 peptide” value is under 0.01% and the CO2 released is listed as under 0.001 nmol.

For the molecule “HIF-1α 775-826: free polypeptide encompassing the human HIF-1α CAD (residues 775-826), GST tag removed”, the Vmax in the series with FIH [1] (preliminary kinetic parameter, 2-OG turnover assay) is 0.3 µmol/min/mg. In addition, the Km with FIH [1] (preliminary kinetic parameter, 2-OG turnover assay, read-out: Km(peptide)) was determined as 10 µM. In the series with FIH [1], the “% activity relative to 775-826 peptide” value was found to be 100% and the CO2 released is given as 2.8 nmol.

As for `[Cl-].[Cl-].[Co+2]` [Cobalt (II), cobalt (II) chloride], on FIH [2] (setting [4]), the IC50 was determined as 10 µM.

B1: His6-HIF-1α 530-698: His6-tagged section of HIF-1α, residues 530-698 (protein)
chain: EFKLELVEKLFAEDTEAKNPFSTQDTDLDLEMLAPYIPMDDDFQLRSFDQLSPLESSSASPESASPQSTVTVFQQTQIQEPTANATTTTATTDELKTVTKDRMEDIKILIASPSPTHIHKETTSATSSPYRDTQSRTASPNRAGKGVIEQTEKSHPRSPNVLSVALSQR
modifications: left off: small tags and cut ends
For the molecule B1, in the series with FIH [1], the “% activity relative to 775-826 peptide” value is under 0.01% and the CO2 released is recorded as under 0.001 nmol.

B2: His6-HIF-1α 344-503: His6-tagged section of HIF-1α, residues 344-503 (protein)
chain: GIIQHDLIFSLQQTECVLKPVESSDMKMTQLFTKVESEDTSSLFDKLKKEPDALTLLAPAAGDTIISLDFGSNDTETDDQQLEEVPLYNDVMLPSPNEKLQNINLAMSPLPTAETPKPLRSSADPALNQEVALKLEPNPESLELSFTMPQIQDQTPSPSD
modifications: left off: small tags and cut ends
B2: in the series with FIH [1], the “% activity relative to 775-826 peptide” value is under 0.01% and the CO2 released is on record as under 0.001 nmol.

B3: GST HIF-1α 530-652: GST tagged fusion of human HIF-1α residues 530-652 (protein)
chain: EFKLELVEKLFAEDTEAKNPFSTQDTDLDLEMLAPYIPMDDDFQLRSFDQLSPLESSSASPESASPQSTVTVFQQTQIQEPTANATTTTATTDELKTVTKDRMEDIKILIASPSPTHIHKETT
modifications: left off: a dimerising Fc or GST
As for B3, in the series with FIH [1], the “% activity relative to 775-826 peptide” value was 1.8% and the CO2 released amounted to 0.05 nmol.
